# T1: GST-PTPL1 PDZ domain 2 (Homo sapiens (Human)), Q12923
# T1 chain: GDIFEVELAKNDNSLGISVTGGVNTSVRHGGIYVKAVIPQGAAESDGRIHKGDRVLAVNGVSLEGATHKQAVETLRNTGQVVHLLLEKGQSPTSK
# T2: GST-AIPC PDZ domain 1 (Homo sapiens (Human)), O15018
# T2 chain: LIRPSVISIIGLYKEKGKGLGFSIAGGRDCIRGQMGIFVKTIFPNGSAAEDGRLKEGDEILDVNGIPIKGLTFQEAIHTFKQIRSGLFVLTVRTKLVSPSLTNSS
# T3: GST-KIAA1526 PDZ domain 1 (Homo sapiens (Human)), Q9P202
# T3 chain: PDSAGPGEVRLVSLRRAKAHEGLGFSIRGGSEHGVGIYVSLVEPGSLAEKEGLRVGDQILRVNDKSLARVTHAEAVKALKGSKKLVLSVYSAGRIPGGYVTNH
# T4: GST-INADL PDZ domain 3 (Homo sapiens (Human)), Q8NI35
# T4 chain: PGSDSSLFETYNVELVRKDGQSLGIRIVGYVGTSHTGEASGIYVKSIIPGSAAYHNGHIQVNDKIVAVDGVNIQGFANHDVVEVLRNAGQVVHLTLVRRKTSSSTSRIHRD
# T5: GST-KIAA0382 PDZ domain 1 (Canis lupus familiaris (Dog) (Canis familiaris)), A0A8I3
# T5 chain: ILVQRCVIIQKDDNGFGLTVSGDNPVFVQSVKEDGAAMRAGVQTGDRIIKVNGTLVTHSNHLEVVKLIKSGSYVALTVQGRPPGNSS
# T6: GST-TIP1 PDZ domain 1 (Table 9 insert) (Homo sapiens (Human)), O14907
# T6 chain: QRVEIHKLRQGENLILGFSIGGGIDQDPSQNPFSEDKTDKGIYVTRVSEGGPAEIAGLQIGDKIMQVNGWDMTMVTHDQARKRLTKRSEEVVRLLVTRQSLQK
# T7: GST-APXL-1 PDZ domain 1 (Homo sapiens (Human)), Q13796
# T7 chain: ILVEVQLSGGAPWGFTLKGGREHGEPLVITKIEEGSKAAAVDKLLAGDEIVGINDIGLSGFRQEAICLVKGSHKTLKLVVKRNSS
# T8: GST-FLJ00011 PDZ domain 1 (Homo sapiens (Human)), Q9H5P4
# T8 chain: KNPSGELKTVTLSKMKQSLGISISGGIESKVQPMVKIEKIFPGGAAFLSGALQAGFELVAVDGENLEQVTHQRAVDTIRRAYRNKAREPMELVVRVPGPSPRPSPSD
# T9: GST-HEMBA 1003117 PDZ domain 1 (Homo sapiens (Human)), Q96JH8
# T9 chain: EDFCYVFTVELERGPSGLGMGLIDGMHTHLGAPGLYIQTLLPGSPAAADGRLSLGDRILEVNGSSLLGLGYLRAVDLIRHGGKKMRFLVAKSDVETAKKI
# T10: GST-KIAA0807(S) PDZ domain 1 (Homo sapiens (Human)), Q6P0Q8
# T10 chain: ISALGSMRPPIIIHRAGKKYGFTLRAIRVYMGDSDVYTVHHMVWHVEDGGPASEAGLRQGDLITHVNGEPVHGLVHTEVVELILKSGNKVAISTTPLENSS
# T11: GST-LIM-RIL PDZ domain 1 (Homo sapiens (Human)), P50479
# T11 chain: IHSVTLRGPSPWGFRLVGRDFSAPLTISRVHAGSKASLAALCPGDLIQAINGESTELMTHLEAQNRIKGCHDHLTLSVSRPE
# T12: GST-FLJ 10324 PDZ domain 1 [GST: P08515]
# T12 chain: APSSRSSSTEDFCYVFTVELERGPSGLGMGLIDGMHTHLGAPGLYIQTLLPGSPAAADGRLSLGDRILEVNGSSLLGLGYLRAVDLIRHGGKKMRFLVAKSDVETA
# T13: GST-Outer Membrane PDZ domain 1 (Homo sapiens (Human)), P57105
# T13 chain: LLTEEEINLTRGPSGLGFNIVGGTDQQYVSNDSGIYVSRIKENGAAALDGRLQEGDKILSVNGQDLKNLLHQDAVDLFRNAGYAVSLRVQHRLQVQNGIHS
# T14: GST-Syntrophin gamma 1 PDZ domain 1 (Homo sapiens (Human)), Q9NSN8
# T14 chain: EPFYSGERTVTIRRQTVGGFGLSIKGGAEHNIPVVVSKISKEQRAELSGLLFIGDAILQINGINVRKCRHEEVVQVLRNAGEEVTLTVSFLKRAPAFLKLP
# T15: GST-MINT1 PDZ domain 2 (Mus musculus (Mouse)), B2RUJ5
# T15 chain: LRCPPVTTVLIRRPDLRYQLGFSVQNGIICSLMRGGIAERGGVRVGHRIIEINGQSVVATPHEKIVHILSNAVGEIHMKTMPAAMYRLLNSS
# B1: ephrin B2 (peptide)
# peptide: ILNSIQVMRAQMNQIQSVEV
# modifications: not checked
# B2: catenin - delta 2 (peptide)
# peptide: PYSELNYETSHYPASPDSWV
# modifications: not checked
# B3: alpha-2A Adrenergic receptor (peptide)
# peptide: HDFRRAFKKILARGDRKRIV
# modifications: not checked
# Molecular target: T1, GST-PTPL1 PDZ domain 2 (Homo sapiens …)
# Test: G' assay
# Further: key of the grades not given here.
row,Binder,Classification
1,B1,2 A450 class
2,B2,5 A450 class
3,B3,2 A450 class

# Molecular target: T2, GST-AIPC PDZ domain 1 (Homo sapiens …)
# Test: G' assay
row,Binder,Classification
1,B1,2 A450 class
2,B2,2 A450 class
3,B3,2 A450 class

# Molecular target: T3, GST-KIAA1526 PDZ domain 1 (Homo sapiens …)
# Test: G' assay
row,Binder,Classification
1,B1,3 A450 class
2,B2,2 A450 class
3,B3,4 A450 class

# Molecular target: T4, GST-INADL PDZ domain 3 (Homo sapiens …)
# Test: G' assay
row,Binder,Classification
1,B1,2 A450 class
2,B3,2 A450 class

# Molecular target: GST-Atrophin-1 Interacting Protein PDZ domain 3 (Rattus norvegicus (Rat)), O88382
# Test: G' assay
# Sequence of GST-Atrophin-1 Interacting Protein PDZ domain 3 (Rattus norvegicus (Rat)), O88382 (O88382 774-865, tags or fused parts left off): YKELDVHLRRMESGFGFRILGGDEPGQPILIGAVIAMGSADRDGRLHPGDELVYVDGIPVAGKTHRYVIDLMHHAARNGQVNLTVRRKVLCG
row,Binder,Classification
1,B1,1 A450 class
2,B2,1 A450 class

# Molecular target: T5, GST-KIAA0382 PDZ domain 1 (Canis lupus …)
# Test: G' assay
row,Binder,Classification
1,B1,2 A450 class

# Molecular target: GST-PAR3 PDZ domain 3 (Homo sapiens (Human)), Q8TEW0
# Test: G' assay
# Sequence of GST-PAR3 PDZ domain 3 (Homo sapiens (Human)), Q8TEW0 (Q8TEW0 579-681): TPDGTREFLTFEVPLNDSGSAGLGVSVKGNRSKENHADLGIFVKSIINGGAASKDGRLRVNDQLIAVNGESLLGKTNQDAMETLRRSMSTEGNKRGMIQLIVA
row,Binder,Classification
1,B1,2 A450 class
2,B2,1 A450 class
3,B3,2 A450 class

# Molecular target: T6, GST-TIP1 PDZ domain 1 (Table 9 insert) …
# Test: G' assay
row,Binder,Classification
1,B1,2 A450 class
2,B2,3 A450 class

# Molecular target: T7, GST-APXL-1 PDZ domain 1 (Homo sapiens …)
# Test: G' assay
row,Binder,Classification
1,B1,1 A450 class
2,B3,1 A450 class

# Molecular target: T8, GST-FLJ00011 PDZ domain 1 (Homo sapiens …)
# Test: G' assay
row,Binder,Classification
1,B1,2 A450 class

# Molecular target: T9, GST-HEMBA 1003117 PDZ domain 1 (Homo …)
# Test: G' assay
row,Binder,Classification
1,B1,2 A450 class
2,B2,1 A450 class
3,B3,1 A450 class

# Molecular target: T10, GST-KIAA0807(S) PDZ domain 1 (Homo …)
# Test: G' assay
row,Binder,Classification
1,B1,2 A450 class
2,B2,3 A450 class
3,B3,1 A450 class

# Molecular target: GST-KIAA1634 PDZ domain 5 (Homo sapiens (Human)), Q5TCQ9
# Test: G' assay
# Sequence of GST-KIAA1634 PDZ domain 5 (Homo sapiens (Human)), Q5TCQ9 (Q5TCQ9 other isoform, or with tags, fused parts or gaps): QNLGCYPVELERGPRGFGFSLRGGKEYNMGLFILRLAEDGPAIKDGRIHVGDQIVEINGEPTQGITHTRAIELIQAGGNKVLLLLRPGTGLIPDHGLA
row,Binder,Classification
1,B2,3 A450 class

# Molecular target: GST-Atrophin-1 Interacting Protein PDZ domain 5 (Rattus norvegicus (Rat)), O88382
# Test: G' assay
# Sequence of GST-Atrophin-1 Interacting Protein PDZ domain 5 (Rattus norvegicus (Rat)), O88382 (O88382 1128-1225): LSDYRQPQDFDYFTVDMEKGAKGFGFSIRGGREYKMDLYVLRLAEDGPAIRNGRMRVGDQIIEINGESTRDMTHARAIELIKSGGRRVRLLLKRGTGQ
row,Binder,Classification
1,B1,2 A450 class
2,B2,5 A450 class
3,B3,1 A450 class

# Molecular target: T11, GST-LIM-RIL PDZ domain 1 (Homo sapiens …)
# Test: G' assay
row,Binder,Classification
1,B1,2 A450 class
2,B2,2 A450 class

# Molecular target: T12, GST-FLJ 10324 PDZ domain 1 [GST: P08515]
# Test: G' assay
row,Binder,Classification
1,B1,2 A450 class
2,B2,3 A450 class
3,B3,1 A450 class

# Molecular target: T13, GST-Outer Membrane PDZ domain 1 (Homo …)
# Test: G' assay
row,Binder,Classification
1,B2,5 A450 class

# Molecular target: T14, GST-Syntrophin gamma 1 PDZ domain 1 …
# Test: G' assay
row,Binder,Classification
1,B1,2 A450 class
2,B2,1 A450 class
3,B3,2 A450 class

# Molecular target: GST-BAI-1 Associated Protein PDZ domain 6 (Homo sapiens (Human)), Q96QZ7
# Test: G' assay
# Sequence of GST-BAI-1 Associated Protein PDZ domain 6 (Homo sapiens (Human)), Q96QZ7 (Q96QZ7 1143-1233): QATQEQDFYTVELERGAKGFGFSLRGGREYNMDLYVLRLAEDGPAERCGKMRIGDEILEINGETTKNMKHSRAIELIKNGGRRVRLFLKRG
row,Binder,Classification
1,B1,2 A450 class
2,B3,3 A450 class

# Molecular target: GST-KIAA807 [GST: P08515]
# Test: G' assay
# Sequence of GST-KIAA807 [GST: P08515] (P08515 whole entry): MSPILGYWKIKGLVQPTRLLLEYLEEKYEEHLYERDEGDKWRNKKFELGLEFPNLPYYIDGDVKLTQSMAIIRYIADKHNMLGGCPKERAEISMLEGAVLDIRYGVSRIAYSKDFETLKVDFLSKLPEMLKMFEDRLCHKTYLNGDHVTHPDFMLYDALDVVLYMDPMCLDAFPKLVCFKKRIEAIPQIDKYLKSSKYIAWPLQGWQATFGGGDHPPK
row,Binder,Classification
1,B1,2 A450 class
2,B2,4 A450 class

# Molecular target: T15, GST-MINT1 PDZ domain 2 (Mus musculus …)
# Test: G' assay
row,Binder,Classification
1,B1,3 A450 class
2,B2,3 A450 class

# — patent US20050282743A1, “Molecular interactions in cells” (Arbor Vita Corporation, priority 2001, published 2005)
